Reference: patent US20220072120A1 (University of Washington, published 2022)

Molecular target: A/Hong_Kong/4801/2014 (H3N2) HA 1-676 Y98F GG lkr dn5B.SA (influenza A virus A/Hong_Kong/4801/2014 …)
Assay: in vitro co-assembly; SEC, SDS-PAGE of elution peaks, negative-stain EM

B1: I53-dn5 A (designed binder)
chain: MGKYDGSKLRIGILHARWNAEIILALVLGALKRLQEFGVKRENIIIETVPGSFELPYGSKLFVEKQKRLGKPLDAIIPIGVLIKGSTMHFEYICDSTTHQLMKLNFELGIPVIFGVLTCLTDEQAEARAGLIEGKMHNHGEDWGAAAVEMATKFN
- binding result: binds
